Drawing on patent US20200262867A1 (WNTRX PHARMACEUTICALS, published 2020), this text covers IC50 for 28 molecules.

The labels stand for the following.
T1: β-catenin (UniProt P35222 1-781, limits assumed)
T1 construct: also called beta-catenin
T1 sequence (looked up): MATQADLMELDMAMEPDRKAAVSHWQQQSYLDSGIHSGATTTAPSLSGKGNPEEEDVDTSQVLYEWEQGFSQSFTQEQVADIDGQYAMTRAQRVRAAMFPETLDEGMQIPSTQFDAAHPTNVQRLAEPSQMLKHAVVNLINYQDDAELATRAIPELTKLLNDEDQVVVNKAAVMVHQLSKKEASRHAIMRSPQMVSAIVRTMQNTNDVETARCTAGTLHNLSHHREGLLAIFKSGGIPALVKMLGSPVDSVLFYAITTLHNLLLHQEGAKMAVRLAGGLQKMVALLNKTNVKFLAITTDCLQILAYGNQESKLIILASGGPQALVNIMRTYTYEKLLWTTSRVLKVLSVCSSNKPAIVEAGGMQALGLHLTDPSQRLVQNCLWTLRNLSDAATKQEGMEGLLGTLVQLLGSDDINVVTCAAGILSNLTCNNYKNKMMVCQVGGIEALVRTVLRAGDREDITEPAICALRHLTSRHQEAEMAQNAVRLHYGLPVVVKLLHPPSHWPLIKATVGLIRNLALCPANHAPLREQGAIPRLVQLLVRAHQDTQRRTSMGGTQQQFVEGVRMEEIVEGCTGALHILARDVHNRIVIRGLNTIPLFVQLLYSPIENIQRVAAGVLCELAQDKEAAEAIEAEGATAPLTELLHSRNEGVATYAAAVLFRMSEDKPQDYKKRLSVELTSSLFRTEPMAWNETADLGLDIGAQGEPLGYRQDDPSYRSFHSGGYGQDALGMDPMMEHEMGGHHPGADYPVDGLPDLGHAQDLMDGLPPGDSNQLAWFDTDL

B1: SEQ ID NO: 59 (peptide)
peptide: RERSLQTLRDIQRML[2Nal]
B2: SEQ ID NO: 209 (peptide)
peptide: {Palmitoyl-PEG4″}-H[hArg]QRSLQTLR[S5]IQR[S5][Cha][2Nal]-NH2
modifications: staple 11-15
B3: SEQ ID NO: 58 (peptide)
peptide: RSLQTLR[Nle]IQR[Nle]L[2Nal]
B4: SEQ ID NO: 56 (peptide)
peptide: LQTLR[Nle]IQR[Nle]L[2Nal]P
B5: SEQ ID NO: 7 (peptide)
peptide: Ac-EHRERSLQTLR[S5]IQR[S5]L[2Nal]-NH2
modifications: staple 12-16; not fully specified; printed as EHRERSLQTLRXIQRXL(2-Nal)
B6: SEQ ID NO: 9 (peptide)
peptide: Ac-EHRERSLQTLR[S5′]IQR[S5′][Cba][2Nal]-NH2
modifications: staple 12-16; not fully specified; printed as EHRERSLQTLRXIQRX(CBA)(2-Nal)
B7: SEQ ID NO: 12 (peptide)
peptide: Ac-EHQERSLQTLR[S5]IQR[S5]L[2Nal]-NH2
modifications: staple 12-16; not fully specified; printed as EHQERSLQTLRXIQRXL(2-Nal)
B8: SEQ ID NO: 193 (peptide)
peptide: Ac-HR[NMeQ]RSLQTLR[S5]IQR[S5][tBuAla][2Nal]-NH2
modifications: staple 11-15; also: N-methylglutamine 3: D or L (filing names both)
B9: SEQ ID NO: 207 (peptide)
peptide: {Palmitoyl-PEG4″}-HR[NMeQ′]RSL[NMeQ′]TLR[S5]IQR[S5][Cha][2Nal]-NH2
modifications: staple 11-15; not fully specified
B10: SEQ ID NO: 161 (peptide)
peptide: Ac-HRQRSLQTLR[S5]IQR[S5][Cba][2Nal]K([PEG4″-Palmitoyl])-NH2
modifications: staple 11-15
B11: SEQ ID NO: 39 (peptide)
peptide: Ac-RE[S5]SLQ[S5]LR[S5]IQR[S5]L[2Nal]-NH2
modifications: staple 10-14, 3-7; not fully specified; printed as REXSLQXLRZIQRZL(2-Nal)
B12: SEQ ID NO: 215 (peptide)
peptide: Ac-[NMeH]RQRSLQTLR[S5]IQR[S5][Cha][2Nal]-NH2
modifications: staple 11-15
SMILES: CC[C@H](C)[C@@H]1NC(=O)[C@@](C)(NC(=O)[C@H](CCCNC(=N)N)NC(=O)[C@H](CC(C)C)NC(=O)[C@@H](NC(=O)[C@H](CCC(N)=O)NC(=O)[C@H](CC(C)C)NC(=O)[C@H](CO)NC(=O)[C@H](CCCNC(=N)N)NC(=O)[C@H](CCC(N)=O)NC(=O)[C@H](CCCNC(=N)N)NC(=O)[C@H](Cc2c[nH]cn2)N(C)C(C)=O)[C@@H](C)O)CCCC=CCCC[C@@](C)(C(=O)N[C@@H](CC2CCCCC2)C(=O)N[C@@H](Cc2ccc3ccccc3c2)C(N)=O)NC(=O)[C@H](CCCNC(=N)N)NC(=O)[C@H](CCC(N)=O)NC1=O
B13: SEQ ID NO: 164 (peptide)
peptide: HRQRSLQTLR[S5]IQ[NMeR][S5][Cba][2Nal]
modifications: staple 11-15; not fully specified (residues 3, 7, N-terminus, C-terminus); printed as HR(N-methylQ)RSL(N-methylQ)TLRXIQ(N-methylR)X(CBA)(2-Nal), X/X stapled, (S) α-methyl, N-terminal Ac, C-terminal NH2
B14: SEQ ID NO: 57 (peptide)
peptide: RSLQTLRDIQRML[2Nal]
B15: SEQ ID NO: 223 (peptide)
peptide: HRQRSLQTLXXIQRXAA
modifications: H(homoArg)QRSLQTL(Cit)XIQRX(Cha)(2-Nal); X/X stapled, (S) α-methyl; N-terminal Ac; C-terminal NH2
B16: SEQ ID NO: 49 (peptide)
peptide: LR[Nle]IQR[Nle]L[2Nal][βAla][βAla]
B17: SEQ ID NO: 213 (peptide)
peptide: {Palmitoyl-PEG4″}-L[NMeQ′]TLR[S5]IQR[S5][Cba][2Nal]-NH2
modifications: staple 6-10; also: Q2 N-methyl: stated both D and L
B18: SEQ ID NO: 190 (peptide)
peptide: Ac-HRQRSLQTLR[S5]IQ[NMeR][S5][Cha][2Nal]-NH2
modifications: staple 11-15
SMILES: CC[C@H](C)[C@@H]1NC(=O)[C@@](C)(NC(=O)[C@H](CCCNC(=N)N)NC(=O)[C@H](CC(C)C)NC(=O)[C@@H](NC(=O)[C@H](CCC(N)=O)NC(=O)[C@H](CC(C)C)NC(=O)[C@H](CO)NC(=O)[C@H](CCCNC(=N)N)NC(=O)[C@H](CCC(N)=O)NC(=O)[C@H](CCCNC(=N)N)NC(=O)[C@H](Cc2c[nH]cn2)NC(C)=O)[C@@H](C)O)CCCC=CCCC[C@@](C)(C(=O)N[C@@H](CC2CCCCC2)C(=O)N[C@@H](Cc2ccc3ccccc3c2)C(N)=O)NC(=O)[C@H](CCCNC(=N)N)N(C)C(=O)[C@H](CCC(N)=O)NC1=O
B19: SEQ ID NO: 8 (peptide)
peptide: Ac-QLEHRERSLQTLR[S5]IQR[S5]L[2Nal]-NH2
modifications: staple 14-18; not fully specified; printed as QLEHRERSLQTLRXIQRXL(2-Nal)
B20: SEQ ID NO: 34 (peptide)
peptide: Ac-LQTLR[S5]IQR[S5]L[2Nal][βAla][βAla]-NH2
modifications: staple 6-10; not fully specified; printed as LQTLRXIQRXL(2-Nal)(β-Ala)(β-Ala)
B21: SEQ ID NO: 27 (peptide)
peptide: Ac-LQTLR[S5]IQA[S5]L[2Nal]AA-NH2
modifications: staple 6-10; not fully specified; printed as LQTLRXIQAXL(2-Nal)AA
B22: SEQ ID NO: 62 (peptide)
peptide: HRERSLQTLR[Nle]IQR[Nle]L[2Nal]
B23: SEQ ID NO: 191 (peptide)
peptide: Ac-HRQRSLQTLR[S5]IQR[S5][tBuAla][2Nal]-NH2
modifications: staple 11-15
SMILES: CC[C@H](C)[C@@H]1NC(=O)[C@@](C)(NC(=O)[C@H](CCCNC(=N)N)NC(=O)[C@H](CC(C)C)NC(=O)[C@@H](NC(=O)[C@H](CCC(N)=O)NC(=O)[C@H](CC(C)C)NC(=O)[C@H](CO)NC(=O)[C@H](CCCNC(=N)N)NC(=O)[C@H](CCC(N)=O)NC(=O)[C@H](CCCNC(=N)N)NC(=O)[C@H](Cc2c[nH]cn2)NC(C)=O)[C@@H](C)O)CCCC=CCCC[C@@](C)(C(=O)N[C@@H](CC(C)(C)C)C(=O)N[C@@H](Cc2ccc3ccccc3c2)C(N)=O)NC(=O)[C@H](CCCNC(=N)N)NC(=O)[C@H](CCC(N)=O)NC1=O
B24: SEQ ID NO: 36 (peptide)
peptide: Ac-QLEHRERSL[S5]TLR[S5]IQRML[2Nal]-NH2
modifications: staple 10-14; not fully specified; printed as QLEHRERSLXTLRXIQRML(2-Nal)
B25: SEQ ID NO: 61 (peptide)
peptide: HRERSLQTLRDIQRML[2Nal]
B26: SEQ ID NO: 222 (peptide)
peptide: Ac-H[hArg]QRSLQTLR[S5]IQ[Cit][S5][Cha][2Nal]-NH2
modifications: staple 11-15
SMILES: CC[C@H](C)[C@@H]1NC(=O)[C@@](C)(NC(=O)[C@H](CCCNC(=N)N)NC(=O)[C@H](CC(C)C)NC(=O)[C@@H](NC(=O)[C@H](CCC(N)=O)NC(=O)[C@H](CC(C)C)NC(=O)[C@H](CO)NC(=O)[C@H](CCCNC(=N)N)NC(=O)[C@H](CCC(N)=O)NC(=O)[C@H](CCCCNC(=N)N)NC(=O)[C@H](Cc2c[nH]cn2)NC(C)=O)[C@@H](C)O)CCCC=CCCC[C@@](C)(C(=O)N[C@@H](CC2CCCCC2)C(=O)N[C@@H](Cc2ccc3ccccc3c2)C(N)=O)NC(=O)[C@H](CCCNC(N)=O)NC(=O)[C@H](CCC(N)=O)NC1=O
B27: SEQ ID NO: 55 (peptide)
peptide: LQTLRDIQRML[2Nal]P
B28: SEQ ID NO: 60 (peptide)
peptide: RERSLQTLR[Nle]IQR[Nle]L[2Nal]

Bridges are numbered along the chain shown (N, C = ends). Primed or numbered codes have the meaning given here. Where no end group is shown, it is not given here. Side-chain parts run from the residue outwards. [ ]: non-standard residue; d: D form. The star is where a group is joined. S5′ = (S)-2-(4'-pentenyl)alanine, olefinic stapling residue closed by ring-closing metathesis; NMeQ′ = N-methylglutamine (N-alpha-methyl, stereo named both D and L in the filing); PEG4″ = PEG4 (tetraethylene glycol) spacer; 2Nal = N[C@@H](Cc1ccc2ccccc2c1)C(=O)O; NMeH = CN[C@@H](Cc1c[nH]cn1)C(=O)O; NMeR = CN[C@@H](CCCNC(=N)N)C(=O)O; Palmitoyl = CCCCCCCCCCCCCCCC(=O)*; hArg = N=C(N)NCCCC[C@H](N)C(=O)O; tBuAla = CC(C)(C)C[C@H](N)C(=O)O; NMeQ = CN[C@@H](CCC(N)=O)C(=O)O; Cha = N[C@@H](CC1CCCCC1)C(=O)O; Cit = NC(=O)NCCC[C@H](N)C(=O)O; Cba = N[C@@H](CC1CCC1)C(=O)O; S5 = C=CCCC[C@](C)(N)C(=O)O; Nle = CCCC[C@H](N)C(=O)O; βAla = NCCC(=O)O

In this experiment the target is T1, β-catenin. Nature of the experiment: ALPHA Screen (BCL9/β-catenin).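 Further: bead proximity readout with the polypeptide linked to donor beads and β-catenin fixed on acceptor beads, their binding bringing the beads close enough to emit signal.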
Source text: In this assay, a polypeptide is conjugated to a donor bead and its target protein (i.e., β-catenin) is attached to an acceptor bead. When the two beads are in proximity due to the binding of the polypeptide to the target protein, a signal is generated and the binding affinity of the polypeptide can be quantitatively calculated. The assay may be conducted in the presence or absence of an unconjugated control polypeptide.
In turn, B1 returned an IC50 of 5950 nM. This counts as single-digit micromolar.
Take B2: the IC50 worked out at 253 nM.
Turning to B3, the IC50 was 2840 nM.
B4 came in with an IC50 of 10100 nM.
B5 registered an IC50 of 810 nM. Compared with the last molecule, the IC50 is about 12-fold lower.
Take B6: half-maximal inhibition (IC50) was put at 1500 nM.
Molecule B7 gave an IC50 of 4160 nM.
In the case of B8, half-maximal inhibition (IC50) was put at 323 nM.
In turn, B9 gave an IC50 of 354 nM.
The value for B10 was 791 nM.
For the molecule B11, 2200 nM corresponded to half-maximal inhibition (IC50).
B12 displayed an IC50 of 9520 nM.
As to B13, the IC50 came to 1480 nM.
With B14, the IC50 amounted to 13600 nM.
On to B15, for which it took 573 nM to reach half-maximal inhibition (IC50).
With B16, the IC50 turned out to be 6710 nM. Against the preceding molecule, the IC50 is about 12-fold higher.
B17 registered an IC50 of 466 nM.
The figure for B18 is 271 nM; for B19 it is 770 nM; for B20 it is 9620 nM.
In turn, B21 displayed a half-maximal inhibitory concentration (IC50) of 6120 nM.
The value for B22 was 840 nM; that for B23 was 322 nM; that for B24 was 940 nM.
Take B25: the IC50 worked out at 1380 nM.
As for B26, the IC50 was 742 nM.
The figure for B27 is 30300 nM.
The figure for B28 is 2420 nM.

As a reminder, the IC50 is the concentration needed to halve the response being measured. The low end stands for higher potency, the high end for lower potency.
